This passage reports Km, kcat and kcat/Km results from the PETadex activity labels (doi:10.1042/bj20021862).

To fix the notation:
B1: unnamed (protein)
chain: MRPPWYPLHTPSLAFPLLFLLLSLLGGGARAEGREDPQLLVRVRGGQLRGIRLKAPGGPVSAFLGIPFAEPPVGSRRFMPPEPKRPWSGVLDATTFQNVCYQYVDTLYPGFEGTEMWNPNRELSEDCLYLNVWTPYPRPASPTPVLIWIYGGGFYSGAASLDVYDGRFLAQVEGAVLVSMNYRVGTFGFLALPGSREAPGNVGLLDQRLALQWVQENIAAFGGDPMSVTLFGESAGAASVGMHILSLPSRSLFHRAVLQSGTPNGPWATVSAGEARRRATLLARLVGCPPGGAGGNDTELIACLRTRPAQDLVDHEWHVLPQESILRISFVPVVDGDFLSDTPEALINTGDFQDLQVLVGVVKDEGSAFLVYGVPGFSKDNESLISRAQFLAGVRIGVPQASDLAAEAVVLHYTDWLHPEDPTHLRDAMSAVVGDHNVVCPVAQLAGRLAAQGARVYAYIFEHRASTLTWPLWMGVPHGYEIEFIFGLPLDPSLNYTTEERIFAQRLMKYWTNFARTGDPNDPRDSKSPQWPPYTTAAQQYVSLNLKPLEVRRGLRAQTCAFWNRFLPKLLSATDTLDEAERQWKAEFHRWSSYMVHWKNQFDHYSKQERCSDL
B2: unnamed (protein)
chain: MRPPWYPLHTPSLAFPLLFLLLSLLGGGARAEGREDPQLLVRVRGGQLRGIRLKAPGGPVSAFLGIPFAEPPVGSRRFMPPEPKRPWSGVLDATTFQNVCYQYVDTLYPGFEGTEMWNPNRELSEDCLYLNVWTPYPRPASPTPVLIWIYGGGFYSGAASLDVYDGRFLAQVEGAVLVSMNYRVGTFGFLALPGSREAPGNVGLLDQRLALQWVQENIAAFGGDPMSVTLFGESAGAASVGMHILSLPSRSLFHRAVLQSGTPNGPWATVSAGEARRRATLLARLVGCPPGGAGGNDTELIACLRTRPAQDLVDHEWHVLPQESIFRFSFVPVVDGDFLSDTPEALINTGDFQDLQVLVGVVKDEGSYFLVYGVPGFSKDNESLISRAQFLAGVRIGVPQASDLAAEAVVLHYTDWLHPEDPTHLRDAMSAVVGDHNVVCPVAQLAGRLAAQGARVYAYIFEHRASTLTWPLWMGVPHGYEIEFIFGLPLDPSLNYTTEERIFAQRLMKYWTNFARTGDPNDPRDSKSPQWPPYTTAAQQYVSLNLKPLEVRRGLRAQTCAFWNRFLPKLLSATDTLDEAERQWKAEFHRWSSYMVHWKNQFDHYSKQERCSDL
B3: unnamed (protein)
chain: MRPPWYPLHTPSLAFPLLFLLLSLLGGGARAEGREDPQLLVRVRGGQLRGIRLKAPGGPVSAFLGIPFAEPPVGSRRFMPPEPKRPWSGVLDATTFQNVCYQYVDTLYPGFEGTEMWNPNRELSEDCLYLNVWTPYPRPASPTPVLIWIYGGGFYSGAASLDVYDGRFLAQVEGAVLVSMNYRVGTFGFLALPGSREAPGNVGLLDQRLALQWVQENIAAFGGDPMSVTLFGESAGAASVGMHILSLPSRSLFHRAVLQSGTPNGPWATVSAGEARRRATLLARLVGCPPGGAGGNDTELIACLRTRPAQDLVDHEWHVLPQESIFRLSFVPVVDGDFLSDTPEALINTGDFQDLQVLVGVVKDEGSAFLVYGVPGFSKDNESLISRAQFLAGVRIGVPQASDLAAEAVVLHYTDWLHPEDPTHLRDAMSAVVGDHNVVCPVAQLAGRLAAQGARVYAYIFEHRASTLTWPLWMGVPHGYEIEFIFGLPLDPSLNYTTEERIFAQRLMKYWTNFARTGDPNDPRDSKSPQWPPYTTAAQQYVSLNLKPLEVRRGLRAQTCAFWNRFLPKLLSATDTLDEAERQWKAEFHRWSSYMVHWKNQFDHYSKQERCSDL
B4: unnamed (protein)
chain: MRPPWYPLHTPSLAFPLLFLLLSLLGGGARAEGREDPQLLVRVRGGQLRGIRLKAPGGPVSAFLGIPFAEPPVGSRRFMPPEPKRPWSGVLDATTFQNVCYQYVDTLYPGFEGTEMWNPNRELSEDCLYLNVWTPYPRPASPTPVLIWIYGGGFYSGAASLDVYDGRFLAQVEGAVLVSMNYRVGTFGFLALPGSREAPGNVGLLDQRLALQWVQENIAAFGGDPMSVTLFGESAGAASVGMHILSLPSRSLFHRAVLQSGTPNGPWATVSAGEARRRATLLARLVGCPPGGAGGNDTELIACLRTRPAQDLVDHEWHVLPQESILRASFVPVVDGDFLSDTPEALINTGDFQDLQVLVGVVKDEGSAFLVYGVPGFSKDNESLISRAQFLAGVRIGVPQASDLAAEAVVLHYTDWLHPEDPTHLRDAMSAVVGDHNVVCPVAQLAGRLAAQGARVYAYIFEHRASTLTWPLWMGVPHGYEIEFIFGLPLDPSLNYTTEERIFAQRLMKYWTNFARTGDPNDPRDSKSPQWPPYTTAAQQYVSLNLKPLEVRRGLRAQTCAFWNRFLPKLLSATDTLDEAERQWKAEFHRWSSYMVHWKNQFDHYSKQERCSDL
B5: unnamed (protein)
chain: MRPPWYPLHTPSLAFPLLFLLLSLLGGGARAEGREDPQLLVRVRGGQLRGIRLKAPGGPVSAFLGIPFAEPPVGSRRFMPPEPKRPWSGVLDATTFQNVCYQYVDTLYPGFEGTEMWNPNRELSEDCLYLNVWTPYPRPASPTPVLIWIYGGGFYSGAASLDVYDGRFLAQVEGAVLVSMNYRVGTFGFLALPGSREAPGNVGLLDQRLALQWVQENIAAFGGDPMSVTLFGESAGAASVGMHILSLPSRSLFHRAVLQSGTPNGPWATVSAGEARRRATLLARLVGCPPGGAGGNDTELIACLRTRPAQDLVDHEWHVLPQESILRFSFVPVVDGDFLSDTPEALINTGDFQDLQVLVGVVKDEGSAALVYGVPGFSKDNESLISRAQFLAGVRIGVPQASDLAAEAVVLHYTDWLHPEDPTHLRDAMSAVVGDHNVVCPVAQLAGRLAAQGARVYAYIFEHRASTLTWPLWMGVPHGYEIEFIFGLPLDPSLNYTTEERIFAQRLMKYWTNFARTGDPNDPRDSKSPQWPPYTTAAQQYVSLNLKPLEVRRGLRAQTCAFWNRFLPKLLSATDTLDEAERQWKAEFHRWSSYMVHWKNQFDHYSKQERCSDL
B6: unnamed (protein)
chain: MRPPWYPLHTPSLAFPLLFLLLSLLGGGARAEGREDPQLLVRVRGGQLRGIRLKAPGGPVSAFLGIPFAEPPVGSRRFMPPEPKRPWSGVLDATTFQNVCYQYVDTLYPGFEGTEMWNPNRELSEDCLYLNVWTPYPRPASPTPVLIWIYGGGFYSGAASLDVYDGRFLAQVEGAVLVSMNYRVGTFGFLALPGSREAPGNVGLLDQRLALQWVQENIAAFGGDPMSVTLFGESAGAASVGMHILSLPSRSLFHRAVLQSGTPNGPWATVSAGEARRRATLLARLVGCPPGGAGGNDTELIACLRTRPAQDLVDHEWHVLPQESIFRISFVPVVDGDFLSDTPEALINTGDFQDLQVLVGVVKDEGSAFLVYGVPGFSKDNESLISRAQFLAGVRIGVPQASDLAAEAVVLHYTDWLHPEDPTHLRDAMSAVVGDHNVVCPVAQLAGRLAAQGARVYAYIFEHRASTLTWPLWMGVPHGYEIEFIFGLPLDPSLNYTTEERIFAQRLMKYWTNFARTGDPNDPRDSKSPQWPPYTTAAQQYVSLNLKPLEVRRGLRAQTCAFWNRFLPKLLSATDTLDEAERQWKAEFHRWSSYMVHWKNQFDHYSKQERCSDL
B7: unnamed (protein)
chain: MRPPWYPLHTPSLAFPLLFLLLSLLGGGARAEGREDPQLLVRVRGGQLRGIRLKAPGGPVSAFLGIPFAEPPVGSRRFMPPEPKRPWSGVLDATTFQNVCYQYVDTLYPGFEGTEMWNPNRELSEDCLYLNVWTPYPRPASPTPVLIWIYGGGFYSGAASLDVYDGRFLAQVEGAVLVSMNYRVGTFGFLALPGSREAPGNVGLLDQRLALQWVQENIAAFGGDPMSVTLFGESAGAASVGMHILSLPSRSLFHRAVLQSGTPNGPWATVSAGEARRRATLLARLVGCPPGGAGGNDTELIACLRTRPAQDLVDHEWHVLPQESIARFSFVPVVDGDFLSDTPEALINTGDFQDLQVLVGVVKDEGSAFLVYGVPGFSKDNESLISRAQFLAGVRIGVPQASDLAAEAVVLHYTDWLHPEDPTHLRDAMSAVVGDHNVVCPVAQLAGRLAAQGARVYAYIFEHRASTLTWPLWMGVPHGYEIEFIFGLPLDPSLNYTTEERIFAQRLMKYWTNFARTGDPNDPRDSKSPQWPPYTTAAQQYVSLNLKPLEVRRGLRAQTCAFWNRFLPKLLSATDTLDEAERQWKAEFHRWSSYMVHWKNQFDHYSKQERCSDL
B8: unnamed (protein)
chain: MRPPWYPLHTPSLAFPLLFLLLSLLGGGARAEGREDPQLLVRVRGGQLRGIRLKAPGGPVSAFLGIPFAEPPVGSRRFMPPEPKRPWSGVLDATTFQNVCYQYVDTLYPGFEGTEMWNPNRELSEDCLYLNVWTPYPRPASPTPVLIWIYGGGFYSGAASLDVYDGRFLAQVEGAVLVSMNYRVGTFGFLALPGSREAPGNVGLLDQRLALQWVQENIAAFGGDPMSVTLFGESAGAASVGMHILSLPSRSLFHRAVLQSGTPNGPWATVSAGEARRRATLLARLVGCPPGGAGGNDTELIACLRTRPAQDLVDHEWHVLPQESIFRFSFVPVVDGDFLSDTPEALINTGDFQDLQVLVGVVKDEGSAALVYGVPGFSKDNESLISRAQFLAGVRIGVPQASDLAAEAVVLHYTDWLHPEDPTHLRDAMSAVVGDHNVVCPVAQLAGRLAAQGARVYAYIFEHRASTLTWPLWMGVPHGYEIEFIFGLPLDPSLNYTTEERIFAQRLMKYWTNFARTGDPNDPRDSKSPQWPPYTTAAQQYVSLNLKPLEVRRGLRAQTCAFWNRFLPKLLSATDTLDEAERQWKAEFHRWSSYMVHWKNQFDHYSKQERCSDL
B9: unnamed (protein)
chain: MRPPWYPLHTPSLAFPLLFLLLSLLGGGARAEGREDPQLLVRVRGGQLRGIRLKAPGGPVSAFLGIPFAEPPVGSRRFMPPEPKRPWSGVLDATTFQNVCYQYVDTLYPGFEGTEMWNPNRELSEDCLYLNVWTPYPRPASPTPVLIWIYGGGFYSGAASLDVYDGRFLAQVEGAVLVSMNYRVGTFGFLALPGSREAPGNVGLLDQRLALQWVQENIAAFGGDPMSVTLFGQSAGAASVGMHILSLPSRSLFHRAVLQSGTPNGPWATVSAGEARRRATLLARLVGCPPGGAGGNDTELIACLRTRPAQDLVDHEWHVLPQESILRFSFVPVVDGDFLSDTPEALINTGDFQDLQVLVGVVKDEGSAFLVYGVPGFSKDNESLISRAQFLAGVRIGVPQASDLAAEAVVLHYTDWLHPEDPTHLRDAMSAVVGDHNVVCPVAQLAGRLAAQGARVYAYIFEHRASTLTWPLWMGVPHGYEIEFIFGLPLDPSLNYTTEERIFAQRLMKYWTNFARTGDPNDPRDSKSPQWPPYTTAAQQYVSLNLKPLEVRRGLRAQTCAFWNRFLPKLLSATDTLDEAERQWKAEFHRWSSYMVHWKNQFDHYSKQERCSDL

Substrate in this data set: Acetylcholine
As to conditions: pH 7; 22 °C.
In general, Km refers to the concentration of substrate that gives half-maximal velocity. By kcat is commonly meant the maximal rate divided by the concentration of active sites. The kcat/Km is the second-order rate constant that governs catalysis at low substrate concentration. Take B1: the Km came to 69 µM, the kcat was 250 s⁻¹ and the kcat/Km amounted to 3.62e+06 M⁻¹ s⁻¹.

Consider B2, for which the Km stood at 47 µM, the kcat came to 2500 s⁻¹ and the kcat/Km was 5.32e+07 M⁻¹ s⁻¹.

Consider B3, for which the Km was 100 µM, the kcat came to 667 s⁻¹ and the kcat/Km stood at 6.67e+06 M⁻¹ s⁻¹.

For the protein B4, the Km amounted to 190 µM, the kcat amounted to 183 s⁻¹ and the kcat/Km was 965000 M⁻¹ s⁻¹.

On to B5, for which the Km is 150 µM, the kcat is 283 s⁻¹ and the kcat/Km was 1.89e+06 M⁻¹ s⁻¹.

As for B6, the Km was found to be 340 µM, the kcat was 233 s⁻¹ and the kcat/Km came to 686000 M⁻¹ s⁻¹.

In the case of B7, the Km was 76 µM, the kcat stood at 333 s⁻¹ and the kcat/Km stood at 4.39e+06 M⁻¹ s⁻¹.

B8: the Km was found to be 150 µM, the kcat was found to be 650 s⁻¹ and the kcat/Km was 4.33e+06 M⁻¹ s⁻¹.

With B9, the Km came to 100 µM, the kcat is 167 s⁻¹ and the kcat/Km was 1.67e+06 M⁻¹ s⁻¹.
